The values that follow come from doi:10.1101/2021.07.31.454588.

This assay has as its target mCherry-LacRnls-IE1 1–540 (human herpesvirus 6B (HHV-6B)). Put plainly: LacO/LacR tethering assay.

Take “NBS1 (nibrin, NBN), endogenous (from UniProt O60934 1-754) (natural protein)”: the percent of mCherry-LacRnls fusion foci colocalized with NBS1 at the LacO array is 81%.
